B1: V223K: tighter-binding PI3Kγ mutant used for co-crystallisation with Ras (protein, UniProt P48736 1-1102, looked up, variant V223K)
Phosphatidylinositol …: MELENYKQPVVLREDNCRRRRRMKPRSAAASLSSMELIPIEFVLPTSQRKCKSPETALLHVAGHGNVEQMKAQVWLRALETSVAADFYHRLGPHHFLLLYQKKGQWYEIYDKYQVVQTLDCLRYWKATHRSPGQIHLVQRHPPSEESQAFQRQLTALIGYDVTDVSNVHDDELEFTRRGLVTPRMAEVASRDPKLYAMHPWVTSKPLPEYLWKKIANNCIFIKIHRSTTSQTIKVSPDDTPGAILQSFFTKMAKKKSLMDIPESQSEQDFVLRVCGRDEYLVGETPIKNFQWVRHCLKNGEEIHVVLDTPPDPALDEVRKEEWPLVDDCTGVTGYHEQLTIHGKDHESVFTVSLWDCDRKFRVKIRGIDIPVLPRNTDLTVFVEANIQHGQQVLCQRRTSPKPFTEEVLWNVWLEFSIKIKDLPKGALLNLQIYCGKAPALSSKASAESPSSESKGKVQLLYYVNLLLIDHRFLLRRGEYVLHMWQISGKGEDQGSFNADKLTSATNPDKENSMSISILLDNYCHPIALPKHQPTPDPEGDRVRAEMPNQLRKQLEAIIATDPLNPLTAEDKELLWHFRYESLKHPKAYPKLFSSVKWGQQEIVAKTYQLLARREVWDQSALDVGLTMQLLDCNFSDENVRAIAVQKLESLEDDDVLHYLLQLVQAVKFEPYHDSALARFLLKRGLRNKRIGHFLFWFLRSEIAQSRHYQQRFAVILEAYLRGCGTAMLHDFTQQVQVIEMLQKVTLDIKSLSAEKYDVSSQVISQLKQKLENLQNSQLPESFRVPYDPGLKAGALAIEKCKVMASKKKPLWLEFKCADPTALSNETIGIIFKHGDDLRQDMLILQILRIMESIWETESLDLCLLPYGCISTGDKIGMIEIVKDATTIAKIQQSTVGNTGAFKDEVLNHWLKEKSPTEEKFQAAVERFVYSCAGYCVATFVLGIGDRHNDNIMITETGNLFHIDFGHILGNYKSFLGINKERVPFVLTPDFLFVMGTSGKKTSPHFQKFQDICVKAYLALRHHTNLLIILFSMMLMTGMPQLTSKEDIEYIRDALTVGKNEEDAKKYFLDQIEVCRDKGWTVQFNWFLHLVLGIKQGEKHSA
B2: T232D: PI3Kγ RBD mutant (protein, UniProt P48736 1-1102, looked up, variant T232D)
Phosphatidylinositol …: B1 Phosphatidylinositol … with K223V, T232D
B3: K255A: PI3Kγ RBD mutant (protein, UniProt P48736 1-1102, looked up, variant K255A)
Phosphatidylinositol …: B1 Phosphatidylinositol … with K223V, K255A
B4: R226A: PI3Kγ RBD mutant (protein, UniProt P48736 1-1102, looked up, variant R226A)
Phosphatidylinositol …: B1 Phosphatidylinositol … with K223V, R226A
B5: D260A: PI3Kγ RBD mutant (protein, UniProt P48736 1-1102, looked up, variant D260A)
Phosphatidylinositol …: B1 Phosphatidylinositol … with K223V, D260A
B6: K256A: PI3Kγ RBD mutant (protein, UniProt P48736 1-1102, looked up, variant K256A)
Phosphatidylinositol …: B1 Phosphatidylinositol … with K223V, K256A
B7: K251A: PI3Kγ RBD mutant (protein, UniProt P48736 1-1102, looked up, variant K251A)
Phosphatidylinositol …: B1 Phosphatidylinositol … with K223V, K251A
B8: Lys-254: PI3Kγ mutant, Lys-254 mutated to Ala (protein, UniProt P48736 1-1102, looked up, variant K254A)
Phosphatidylinositol …: B1 Phosphatidylinositol … with K223V, K254A
B9: E267K: tighter-binding PI3Kγ mutant (protein, UniProt P48736 1-1102, looked up, variant E267K)
Phosphatidylinositol …: B1 Phosphatidylinositol … with K223V, E267K
B10: K234A: PI3Kγ mutant of a switch II contact residue (protein, UniProt P48736 1-1102, looked up, variant K234A)
Phosphatidylinositol …: B1 Phosphatidylinositol … with K223V, K234A

Positions count from the first letter of the chain named. Names may count otherwise.

T1 sequence (P01111 whole entry): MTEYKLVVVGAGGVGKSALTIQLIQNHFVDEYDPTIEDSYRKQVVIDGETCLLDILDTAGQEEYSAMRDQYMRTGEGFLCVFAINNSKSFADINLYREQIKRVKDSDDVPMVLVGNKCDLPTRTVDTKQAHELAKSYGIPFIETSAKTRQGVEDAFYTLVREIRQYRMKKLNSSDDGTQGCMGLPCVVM

One experiment has as its target T1, N-Ras.mant-GMPPNP (Homo sapiens, UniProt P01111).
T1 construct: fluorescence anisotropy of full length, unmodified N-Ras.mant-GMPPNP
Description: Fluorescence anisotropy titration of PI3Kγ 144-1102 into N-Ras.mant-GMPPNP. The experiment is classed as binding. The conditions noted are these: mutants in the 144-1102 construct, FIG. 2A. The protocol:
Mant-nucleotides were synthesised as described previously (Jameson and Eccleston, 1997). N-Ras and H-Ras mutants were loaded with mant-GMPPNP as in (Moore et al., 1993), gel filtered into running buffer (20 mM Tris pH 7.5, 2 mM MgCl2, 1 mM DTT), and frozen at −80° C. The concentration of Ras.mant-GMPPNP was determined by measuring the absorbance of the mant group at […] with ε=5700 M^−1 cm^−1 (Hiratsuka, 1983). For binding assays, the 144-1102 human PI3Kγ was titrated into a 1 μM solution of fill length, unmodified N-Ras.mant-GMPPNP. Data were collected with SLM 8000 S and ISS PC1 spectrofluorimeters, set up in the T-format and L-format, respectively, with prism polarizers. All measurements were taken at 20° C. with a λex of 366 nm. Both emission PMTs were fitted with 399 nm cutoff filters. Five measurements of each data point were obtained and averaged. Data were fitted to the binding equation.
Turning to B1, the “effect of PI3Kγ RBD mutation on binding to Ras” value (“effect of PI3Kγ RBD mutation” below) is on record as “tighter-binding”.
Still for that read-out and setting: as for B2, the entry is “eliminate binding”; as for B3, “eliminate binding”.
With B4, the “effect of PI3Kγ RBD mutation” value is given as “reduce binding by up to an order of magnitude”.
Same read-out and setting: as for B5, the entry is “reduce binding by up to an order of magnitude”; as for B6, “reduce binding by up to an order of magnitude”; as for B7, “eliminate binding”.
The same measure, in the same setting: as for B8, the entry is “greatly lowers the affinity”; as for B9, “tighter-binding”.
B10: the “effect of PI3Kγ RBD mutation” value is given as “probably increases the Kd”.

In a further experiment the target is N-Ras.GDP (Homo sapiens, UniProt P01111). Description: Binding of PI3Kγ constructs to N-Ras.GDP.
Chain of N-Ras.GDP (P01111 whole entry): as above
Details: not given
As to B1, the “binding to N-Ras.GDP” value is “Neither the wild-type protein, the pseudo wild-type (V327A, see methods), nor the V223K mutant exhibit detectable binding”.

These data come from patent US20040018957A1, “Crystal structure of a Ras-P13K complex” (priority 2000, published 2004).
